Molecular target: REK7 (endogenous, on rat E16 cortical neurons) (rat)
Assay: cell-based or functional assay

Which tyrosine autophosphorylation of REK7 (immunoprecipitation with anti-REK7, anti-phosphotyrosine blot) does the source give for “soluble AL-1 (purified from BT20 conditioned medium) (ligand)” here?
Its tyrosine autophosphorylation of REK7 (immunoprecipitation with anti-REK7, anti-phosphotyrosine blot) is 2 fold.

From patent publication EP0787148B1
